Test [1] addresses extracellular matrix (BD Matrigel). Put plainly: ECL on Matrigel-coated plate, relative to MRAH-G1d/MRAL-k0.
A further test has as its target Mab Select SuRe Ligand. Briefly: SPR (Biacore T200), SuRe ligand on CM5 chip, antibody 5 ug/mL.

This note sets out measurements from patent US20210388110A1.

Where a chain is given by its changes, count along the chain named. “And” between values parts separate entries of the source, which are not always exact repeats. Equal entries are not always repeated.

B1: TR01H040-E2702GsKsc/H0610-E2704sEpsc/L0208-k0 (bispecific antibody, human IgG4 S228P, kappa, N297A)
heavy 1: QVQLVESGGGLVQPGRSLRLSCAASGFTFSNAWMHWVRQAPGKGLEWVAQIKDKSQNYATYYAESVKGRFTISRADSKNSIYLQMNSLKTEDTAVYYCRYVHYSASYGVDAWGQGTTVTVSSASTKGPSVFPLAPCSRSTSESTAALGCLVKDYFPEPVTVSWNSGALTSGVHTFPAVLQSSGLYSLSSVVTVPSSSLGTKTYTCNVDHKPSNTKVDKRVESKYGPPCPPCPAPEFRGGPKVFLFPPKPKDTLMISRTPEVTCVVVDVSQEDPEVQFNWYVDGVEVHNAKTKPREEQFASTYRVVSVLTVLHQDWLNGKEYKCKVSNKGLPSSIEKTISKAKGQPREPQVYTLPPSQKEMTKNQVSLTCLVKGFYPSDIAVEWESNGQPENNYKTTPPVLDSDGSFFLYSKLTVDKSRWQEGNVFSCSVMHEALHNRYTQKSLSLSP
heavy 2: QVQLVQSGAEVKKPGASVKVSCKASGYTFTDYEMHWIRQPPGQGLEWIGAIDGKTPDTAYSQKFKGRVTLTADKSTSTAYMELSSLTSEDTAVYYCTRFYSYTYWGQGTLVTVSSASTKGPSVFPLAPCSRSTSESTAALGCLVKDYFPEPVTVSWNSGALTSGVHTFPAVLQSSGLYSLSSVVTVPSSSLGTQTYTCNVDHKPSNTKVDKRVESKYGPPCPPCPAPEFRGGPKVFLFPPKPKDTLMISRTPEVTCVVVDVSQEDPEVQFNWYVDGVEVHNAKTKPREEQFASTYRVVSVLTVLHQDWLNGKEYKCKVSNKGLPSSIEKTISKAKGQPREPQVYTLPPSQEEMTKNQVSLTCLVKGFYPSDIAVEWESNGQPENNYKTTPPVLDSDGSFFLYSKLTVDKSRWQEGNVFSCSVMHEALHNHYTQESLSLSP
light: DIVMTQSPLSLPVTPGEPASISCRSSQSPVHSNRNTYLHWYQQKPGQAPRLLIYKVSNRFWGVPDRFSGSGSGTDFTLKISRVEAEDVGVYYCYQGTQVPYTFGQGTKLEIKRTVAAPSVFIFPPSDEQLKSGTASVVCLLNNFYPREAKVQWKVDNALQSGNSQESVTEQDSKDSTYSLSSTLTLSKADYEKHKVYACEVTHQGLSSPVTKSFNRGEC
As for B1, the ECM binding ratio (standard = 1) in test [1] was 50.4.

B2: TR01H082-E2702GsKsc/L0011-k0 (antibody, human IgG4 S228P, kappa, N297A)
heavy: B1 heavy 1 with A75D, I81L, S104A, S106G
light: B1 light with S28P, P29L, W61S, Y94G
Molecule B2 showed a SuRe binding (RU) with Mab Select SuRe Ligand of 4470 RU.

B3: TR01H110-E2702GsKsc/L0011-k0 (antibody, human IgG4 S228P, kappa, N297A)
heavy: B1 heavy 1 with L11V, R19K, A75D, I81L, S104A, S106G
light: B1 light with S28P, P29L, W61S, Y94G
Take B3: the SuRe binding (RU) in the test with Mab Select SuRe Ligand came to 29.5 RU.

B4: TR01H084-E2702GsKsc/L0011-k0 (antibody, human IgG4 S228P, kappa, N297A)
heavy: B1 heavy 1 with L11V, R16G, S104A, S106G, A111I
light: B1 light with S28P, P29L, W61S, Y94G
The molecule B4 gave a SuRe binding (RU) with Mab Select SuRe Ligand of 5070 RU.

B5: TR01H091-E2702GsKsc/L0011-k0 (antibody, human IgG4 S228P, kappa, N297A)
heavy: B1 heavy 1 with R19K, A75D, I81L, S104A, S106G
light: B1 light with S28P, P29L, W61S, Y94G
Turning to B5, the SuRe binding (RU) in the test with Mab Select SuRe Ligand was 27.5 RU and 15 RU.

B6: TR01H090-E2702GsKsc/L0011-k0 (antibody, human IgG4 S228P, kappa, N297A)
heavy: B1 heavy 1 with R16G, A75D, I81L, S104A, S106G
light: B1 light with S28P, P29L, W61S, Y94G
In the test with Mab Select SuRe Ligand, B6 returned a SuRe binding (RU) of 3610 RU.

B7: TR01H111-E2702GsKsc/L0011-k0 (antibody, human IgG4 S228P, kappa, N297A)
heavy: B1 heavy 1 with L11V, R16G, R19K, S104A, S106G, A111I
light: B1 light with S28P, P29L, W61S, Y94G
Take B7: in the test with Mab Select SuRe Ligand, the SuRe binding (RU) stood at 50.7 RU.

B8: TR01H093-E2702GsKsc/L0011-k0 (antibody, human IgG4 S228P, kappa, N297A, V domains shown)
VH: QVQLVESGGGLVQPGRSLRLSCAASGFTFSNAWMHWVRQAPGKGLEWVAQIKDKSQNYATYYAESVQGRFTISRDDSKNSLYLQMNSLKTEDTAVYYCRYVHYAAGYGVDAWGQGTTVTVSS
VL: DIVMTQSPLSLPVTPGEPASISCRSSQPLVHSNRNTYLHWYQQKPGQAPRLLIYKVSNRFSGVPDRFSGSGSGTDFTLKISRVEAEDVGVYYCGQGTQVPYTFGQGTKLEIKR
As to B8, the SuRe binding (RU) in the test with Mab Select SuRe Ligand is 2460 RU.

B9: TR01H105-E2702GsKsc/L0011-k0 (antibody, human IgG4 S228P, kappa, N297A, V domains shown)
VH: B8 VH with Y62L, Q67K
VL: B8 VL
For B9, in the test with Mab Select SuRe Ligand, the SuRe binding (RU) worked out at 0.8 RU.

B10: TR01H095-E2702GsKsc/L0011-k0 (antibody, human IgG4 S228P, kappa, N297A, V domains shown)
VH: B8 VH with T60F, Q67K
VL: B8 VL
Regarding B10, the SuRe binding (RU) with Mab Select SuRe Ligand is -0.2 RU.

B11: TR01H092-E2702GsKsc/L0011-k0 (antibody, human IgG4 S228P, kappa, N297A, V domains shown)
VH: B8 VH with Q67A
VL: B8 VL
In turn, B11 registered a SuRe binding (RU) with Mab Select SuRe Ligand of 1160 RU.

B12: TR01H100-E2702GsKsc/L0011-k0 (antibody, human IgG4 S228P, kappa, N297A, V domains shown)
VH: B8 VH with T60S, Q67K
VL: B8 VL
In the test with Mab Select SuRe Ligand, B12 returned a SuRe binding (RU) of 383 RU.

B13: TR01H098-E2702GsKsc/L0011-k0 (antibody, human IgG4 S228P, kappa, N297A, V domains shown)
VH: B8 VH with T60P, Q67K
VL: B8 VL
In the case of B13, the SuRe binding (RU) with Mab Select SuRe Ligand stood at 1.6 RU.

B14: TR01H107-E2702GsKsc/L0011-k0 (antibody, human IgG4 S228P, kappa, N297A, V domains shown)
VH: B8 VH with Y62Q, Q67K
VL: B8 VL
In turn, B14 returned a SuRe binding (RU) in the test with Mab Select SuRe Ligand of 1.4 RU.

B15: TR01H114-E2702GsKsc/L0011-k0 (antibody, human IgG4 S228P, kappa, N297A, V domains shown)
VH: B8 VH with L11V, R16G, T60S, Q67K, D75A, L81I, A111I
VL: B8 VL
On to B15, for which the SuRe binding (RU) with Mab Select SuRe Ligand turned out to be 1490 RU.

B16: TR01H102-E2702GsKsc/L0011-k0 (antibody, human IgG4 S228P, kappa, N297A, V domains shown)
VH: B8 VH with Y62F, Q67K
VL: B8 VL
B16 had a SuRe binding (RU) with Mab Select SuRe Ligand of 0.5 RU.

B17: TR01H097-E2702GsKsc/L0011-k0 (antibody, human IgG4 S228P, kappa, N297A, V domains shown)
VH: B8 VH with T60L, Q67K
VL: B8 VL
In the case of B17, in the test with Mab Select SuRe Ligand, the SuRe binding (RU) was determined as 0.1 RU.

B18: TR01H096-E2702GsKsc/L0011-k0 (antibody, human IgG4 S228P, kappa, N297A, V domains shown)
VH: B8 VH with T60G, Q67K
VL: B8 VL
On to B18, for which the SuRe binding (RU) in the test with Mab Select SuRe Ligand turned out to be 2.7 RU.

B19: TR01H101-E2702GsKsc/L0011-k0 (antibody, human IgG4 S228P, kappa, N297A, V domains shown)
VH: B8 VH with T60V, Q67K
VL: B8 VL
Consider B19, for which, in the test with Mab Select SuRe Ligand, the SuRe binding (RU) amounted to 0.5 RU.

B20: TR01H106-E2702GsKsc/L0011-k0 (antibody, human IgG4 S228P, kappa, N297A, V domains shown)
VH: B8 VH with Y62P, Q67K
VL: B8 VL
In the test with Mab Select SuRe Ligand, B20 showed a SuRe binding (RU) of 0 RU.

B21: TR01H113-E2702GsKsc/L0011-k0 (antibody, human IgG4 S228P, kappa, N297A, V domains shown)
VH: B8 VH with L11V, R16G, Y62V, Q67K, D75A, L81I, A111I
VL: B8 VL
In the case of B21, in the test with Mab Select SuRe Ligand, the SuRe binding (RU) came out at 7 RU.

B22: TR01H104-E2702GsKsc/L0011-k0 (antibody, human IgG4 S228P, kappa, N297A, V domains shown)
VH: B8 VH with Y62I, Q67K
VL: B8 VL
Molecule B22 yielded a SuRe binding (RU) in the test with Mab Select SuRe Ligand of 1 RU.

B23: TR01H112-E2702GsKsc/L0011-k0 (antibody, human IgG4 S228P, kappa, N297A, V domains shown)
VH: B8 VH with L11V, R16G, T60Q, Q67K, D75A, L81I, A111I
VL: B8 VL
In turn, B23 gave a SuRe binding (RU) in the test with Mab Select SuRe Ligand of 8.8 RU.

B24: TR01H099-E2702GsKsc/L0011-k0 (antibody, human IgG4 S228P, kappa, N297A, V domains shown)
VH: B8 VH with T60Q, Q67K
VL: B8 VL
Turning to B24, the SuRe binding (RU) with Mab Select SuRe Ligand amounted to 0.6 RU.

B25: TR01H094-E2702GsKsc/L0011-k0 (antibody, human IgG4 S228P, kappa, N297A, V domains shown)
VH: B8 VH with Q67S
VL: B8 VL
The molecule B25 displayed a SuRe binding (RU) with Mab Select SuRe Ligand of 2350 RU.

B26: TR01H109-E2702GsKsc/L0011-k0 (antibody, human IgG4 S228P, kappa, N297A, V domains shown)
VH: B8 VH with Y62V, Q67K
VL: B8 VL
Molecule B26 gave a SuRe binding (RU) in the test with Mab Select SuRe Ligand of 2.2 RU.

B27: TR01H103-E2702GsKsc/L0011-k0 (antibody, human IgG4 S228P, kappa, N297A, V domains shown)
VH: B8 VH with Y62G, Q67K
VL: B8 VL
Turning to B27, in the test with Mab Select SuRe Ligand, the SuRe binding (RU) came to 1.4 RU.

B28: TR01H108-E2702GsKsc/L0011-k0 (antibody, human IgG4 S228P, kappa, N297A, V domains shown)
VH: B8 VH with Y62T, Q67K
VL: B8 VL
The molecule B28 yielded a SuRe binding (RU) in the test with Mab Select SuRe Ligand of 0.4 RU.
